Starred links: 1 amine or outer side, 2 acyl side, 3 side chain; linkers in the order of their positions; H or OH if unused. Non-standard residues stand in square brackets, D forms with d. Groups on a side chain read outwards from the residue. No end group written: not given here. *: point of attachment. C18 diacid = O=C(O)CCCCCCCCCCCCCCCCC(=O)*; γGlu = O=C(O)[C@H](CCC(=O)[*:2])N[*:1]; αMeF = C[C@](N)(Cc1ccccc1)C(=O)O; AEEA = NCCOCCOCC(=O)O; Aib = CC(C)(N)C(=O)O
Legend:
[1] = molecular target: human GLP-1 receptor (hGLP-1R) (human, UniProt P43220 24-463); assay: cell-based or functional assay
[2] = molecular target: human glucagon receptor (hGCGR) (human, UniProt P47871 26-477); assay: cell-based or functional assay
Chain of human glucagon receptor (hGCGR) (P47871 26-477): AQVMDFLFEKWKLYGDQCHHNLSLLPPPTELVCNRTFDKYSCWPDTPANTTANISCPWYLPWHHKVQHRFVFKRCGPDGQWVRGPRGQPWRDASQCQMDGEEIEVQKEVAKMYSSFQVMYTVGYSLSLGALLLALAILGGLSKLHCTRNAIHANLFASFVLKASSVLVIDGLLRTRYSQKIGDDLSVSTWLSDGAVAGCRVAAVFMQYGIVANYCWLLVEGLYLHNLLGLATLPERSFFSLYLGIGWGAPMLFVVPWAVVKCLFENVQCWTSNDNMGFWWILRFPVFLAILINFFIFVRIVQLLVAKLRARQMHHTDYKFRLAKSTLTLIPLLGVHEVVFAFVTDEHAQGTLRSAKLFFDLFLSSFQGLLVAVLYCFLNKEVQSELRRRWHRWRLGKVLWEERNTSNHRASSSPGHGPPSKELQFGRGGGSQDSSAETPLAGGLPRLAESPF

Binder | hGLP-1R EC50 (pM) [1] [pM] | hGluc-R EC50 (pM) [2] [pM]
H[Aib]QGTFTSDVSK[αMeF]LDSK([AEEA-AEEA-γGlu-C18 diacid])RARDFVQWLLE[Aib]G-OH (N-terminus assumed; SMILES CC(C)C[C@H](NC(=O)[C@H](Cc1c[nH]c2ccccc12)NC(=O)[C@H](CCC(N)=O)NC(=O)[C@@H](NC(=O)[C@H](Cc1ccccc1)NC(=O)[C@H](CC(=O)O)NC(=O)[C@H](CCCNC(=N)N)NC(=O)[C@H](C)NC(=O)[C@H](CCCNC(=N)N)NC(=O)[C@H](CCCCNC(=O)COCCOCCNC(=O)COCCOCCNC(=O)CC[C@H](NC(=O)CCCCCCCCCCCCCCCCC(=O)O)C(=O)O)NC(=O)[C@H](CO)NC(=O)[C@H](CC(=O)O)NC(=O)[C@H](CC(C)C)NC(=O)[C@](C)(Cc1ccccc1)NC(=O)[C@H](CCCCN)NC(=O)[C@H](CO)NC(=O)[C@@H](NC(=O)[C@H](CC(=O)O)NC(=O)[C@H](CO)NC(=O)[C@@H](NC(=O)[C@H](Cc1ccccc1)NC(=O)[C@@H](NC(=O)CNC(=O)[C@H](CCC(N)=O)NC(=O)C(C)(C)NC(=O)[C@@H](N)Cc1c[nH]cn1)[C@@H](C)O)[C@@H](C)O)C(C)C)C(C)C)C(=O)N[C@@H](CC(C)C)C(=O)N[C@@H](CCC(=O)O)C(=O)NC(C)(C)C(=O)NCC(=O)O) [Peptide 143] | 19.1 | 32.6
H[Aib]QGTFTSDVSK[αMeF]LDSK([AEEA-AEEA-γGlu-C18 diacid])RAQDFVRWLEA[Aib]G-OH (N-terminus assumed; SMILES CC(C)C[C@H](NC(=O)[C@H](Cc1c[nH]c2ccccc12)NC(=O)[C@H](CCCNC(=N)N)NC(=O)[C@@H](NC(=O)[C@H](Cc1ccccc1)NC(=O)[C@H](CC(=O)O)NC(=O)[C@H](CCC(N)=O)NC(=O)[C@H](C)NC(=O)[C@H](CCCNC(=N)N)NC(=O)[C@H](CCCCNC(=O)COCCOCCNC(=O)COCCOCCNC(=O)CC[C@H](NC(=O)CCCCCCCCCCCCCCCCC(=O)O)C(=O)O)NC(=O)[C@H](CO)NC(=O)[C@H](CC(=O)O)NC(=O)[C@H](CC(C)C)NC(=O)[C@](C)(Cc1ccccc1)NC(=O)[C@H](CCCCN)NC(=O)[C@H](CO)NC(=O)[C@@H](NC(=O)[C@H](CC(=O)O)NC(=O)[C@H](CO)NC(=O)[C@@H](NC(=O)[C@H](Cc1ccccc1)NC(=O)[C@@H](NC(=O)CNC(=O)[C@H](CCC(N)=O)NC(=O)C(C)(C)NC(=O)[C@@H](N)Cc1c[nH]cn1)[C@@H](C)O)[C@@H](C)O)C(C)C)C(C)C)C(=O)N[C@@H](CCC(=O)O)C(=O)N[C@@H](C)C(=O)NC(C)(C)C(=O)NCC(=O)O) [Peptide 147] | 15.3 | 43.5
H[Aib]QGTFTSDVSK[αMeF]LDSK([AEEA-AEEA-γGlu-C18 diacid])RAQDFVRWVVE[Aib]G-OH (N-terminus assumed; SMILES CC(C)C[C@H](NC(=O)[C@](C)(Cc1ccccc1)NC(=O)[C@H](CCCCN)NC(=O)[C@H](CO)NC(=O)[C@@H](NC(=O)[C@H](CC(=O)O)NC(=O)[C@H](CO)NC(=O)[C@@H](NC(=O)[C@H](Cc1ccccc1)NC(=O)[C@@H](NC(=O)CNC(=O)[C@H](CCC(N)=O)NC(=O)C(C)(C)NC(=O)[C@@H](N)Cc1c[nH]cn1)[C@@H](C)O)[C@@H](C)O)C(C)C)C(=O)N[C@@H](CC(=O)O)C(=O)N[C@@H](CO)C(=O)N[C@@H](CCCCNC(=O)COCCOCCNC(=O)COCCOCCNC(=O)CC[C@H](NC(=O)CCCCCCCCCCCCCCCCC(=O)O)C(=O)O)C(=O)N[C@@H](CCCNC(=N)N)C(=O)N[C@@H](C)C(=O)N[C@@H](CCC(N)=O)C(=O)N[C@@H](CC(=O)O)C(=O)N[C@@H](Cc1ccccc1)C(=O)N[C@H](C(=O)N[C@@H](CCCNC(=N)N)C(=O)N[C@@H](Cc1c[nH]c2ccccc12)C(=O)N[C@H](C(=O)N[C@H](C(=O)N[C@@H](CCC(=O)O)C(=O)NC(C)(C)C(=O)NCC(=O)O)C(C)C)C(C)C)C(C)C) [Peptide 149] | 8.71 | 2650
H[Aib]QGTFTSDVSK[αMeF]LDSK([γGlu-γGlu-AEEA-AEEA-γGlu-γGlu-C18 diacid])RARDFVRWLLE[Aib]G-OH (N-terminus assumed; SMILES CC(C)C[C@H](NC(=O)[C@H](Cc1c[nH]c2ccccc12)NC(=O)[C@H](CCCNC(=N)N)NC(=O)[C@@H](NC(=O)[C@H](Cc1ccccc1)NC(=O)[C@H](CC(=O)O)NC(=O)[C@H](CCCNC(=N)N)NC(=O)[C@H](C)NC(=O)[C@H](CCCNC(=N)N)NC(=O)[C@H](CCCCNC(=O)CC[C@H](NC(=O)CC[C@H](NC(=O)COCCOCCNC(=O)COCCOCCNC(=O)CC[C@H](NC(=O)CC[C@H](NC(=O)CCCCCCCCCCCCCCCCC(=O)O)C(=O)O)C(=O)O)C(=O)O)C(=O)O)NC(=O)[C@H](CO)NC(=O)[C@H](CC(=O)O)NC(=O)[C@H](CC(C)C)NC(=O)[C@](C)(Cc1ccccc1)NC(=O)[C@H](CCCCN)NC(=O)[C@H](CO)NC(=O)[C@@H](NC(=O)[C@H](CC(=O)O)NC(=O)[C@H](CO)NC(=O)[C@@H](NC(=O)[C@H](Cc1ccccc1)NC(=O)[C@@H](NC(=O)CNC(=O)[C@H](CCC(N)=O)NC(=O)C(C)(C)NC(=O)[C@@H](N)Cc1c[nH]cn1)[C@@H](C)O)[C@@H](C)O)C(C)C)C(C)C)C(=O)N[C@@H](CC(C)C)C(=O)N[C@@H](CCC(=O)O)C(=O)NC(C)(C)C(=O)NCC(=O)O) [Peptide 144] | 45.2 | 702
H[Aib]QGTFTSDVSK[αMeF]LDSK([AEEA-AEEA-γGlu-C18 diacid])RAQDFVRWLASRGI-OH (N-terminus assumed; SMILES CC[C@H](C)[C@H](NC(=O)CNC(=O)[C@H](CCCNC(=N)N)NC(=O)[C@H](CO)NC(=O)[C@H](C)NC(=O)[C@H](CC(C)C)NC(=O)[C@H](Cc1c[nH]c2ccccc12)NC(=O)[C@H](CCCNC(=N)N)NC(=O)[C@@H](NC(=O)[C@H](Cc1ccccc1)NC(=O)[C@H](CC(=O)O)NC(=O)[C@H](CCC(N)=O)NC(=O)[C@H](C)NC(=O)[C@H](CCCNC(=N)N)NC(=O)[C@H](CCCCNC(=O)COCCOCCNC(=O)COCCOCCNC(=O)CC[C@H](NC(=O)CCCCCCCCCCCCCCCCC(=O)O)C(=O)O)NC(=O)[C@H](CO)NC(=O)[C@H](CC(=O)O)NC(=O)[C@H](CC(C)C)NC(=O)[C@](C)(Cc1ccccc1)NC(=O)[C@H](CCCCN)NC(=O)[C@H](CO)NC(=O)[C@@H](NC(=O)[C@H](CC(=O)O)NC(=O)[C@H](CO)NC(=O)[C@@H](NC(=O)[C@H](Cc1ccccc1)NC(=O)[C@@H](NC(=O)CNC(=O)[C@H](CCC(N)=O)NC(=O)C(C)(C)NC(=O)[C@@H](N)Cc1c[nH]cn1)[C@@H](C)O)[C@@H](C)O)C(C)C)C(C)C)C(=O)O) [Peptide 145] | 22.6 | 4590
H[Aib]QGTFTSDVSK[αMeF]LDSK([AEEA-AEEA-γGlu-C18 diacid])RAQDFVRWLASR-OH (N-terminus assumed; SMILES CC(C)C[C@H](NC(=O)[C@H](Cc1c[nH]c2ccccc12)NC(=O)[C@H](CCCNC(=N)N)NC(=O)[C@@H](NC(=O)[C@H](Cc1ccccc1)NC(=O)[C@H](CC(=O)O)NC(=O)[C@H](CCC(N)=O)NC(=O)[C@H](C)NC(=O)[C@H](CCCNC(=N)N)NC(=O)[C@H](CCCCNC(=O)COCCOCCNC(=O)COCCOCCNC(=O)CC[C@H](NC(=O)CCCCCCCCCCCCCCCCC(=O)O)C(=O)O)NC(=O)[C@H](CO)NC(=O)[C@H](CC(=O)O)NC(=O)[C@H](CC(C)C)NC(=O)[C@](C)(Cc1ccccc1)NC(=O)[C@H](CCCCN)NC(=O)[C@H](CO)NC(=O)[C@@H](NC(=O)[C@H](CC(=O)O)NC(=O)[C@H](CO)NC(=O)[C@@H](NC(=O)[C@H](Cc1ccccc1)NC(=O)[C@@H](NC(=O)CNC(=O)[C@H](CCC(N)=O)NC(=O)C(C)(C)NC(=O)[C@@H](N)Cc1c[nH]cn1)[C@@H](C)O)[C@@H](C)O)C(C)C)C(C)C)C(=O)N[C@@H](C)C(=O)N[C@@H](CO)C(=O)N[C@@H](CCCNC(=N)N)C(=O)O) [Peptide 146] | 24.6 | 1630
H[Aib]QGTFTSDVSK[αMeF]LDSK([AEEA-AEEA-γGlu-C18 diacid])RAQDFVRWIAE[Aib]G-OH (N-terminus assumed; SMILES CC[C@H](C)[C@H](NC(=O)[C@H](Cc1c[nH]c2ccccc12)NC(=O)[C@H](CCCNC(=N)N)NC(=O)[C@@H](NC(=O)[C@H](Cc1ccccc1)NC(=O)[C@H](CC(=O)O)NC(=O)[C@H](CCC(N)=O)NC(=O)[C@H](C)NC(=O)[C@H](CCCNC(=N)N)NC(=O)[C@H](CCCCNC(=O)COCCOCCNC(=O)COCCOCCNC(=O)CC[C@H](NC(=O)CCCCCCCCCCCCCCCCC(=O)O)C(=O)O)NC(=O)[C@H](CO)NC(=O)[C@H](CC(=O)O)NC(=O)[C@H](CC(C)C)NC(=O)[C@](C)(Cc1ccccc1)NC(=O)[C@H](CCCCN)NC(=O)[C@H](CO)NC(=O)[C@@H](NC(=O)[C@H](CC(=O)O)NC(=O)[C@H](CO)NC(=O)[C@@H](NC(=O)[C@H](Cc1ccccc1)NC(=O)[C@@H](NC(=O)CNC(=O)[C@H](CCC(N)=O)NC(=O)C(C)(C)NC(=O)[C@@H](N)Cc1c[nH]cn1)[C@@H](C)O)[C@@H](C)O)C(C)C)C(C)C)C(=O)N[C@@H](C)C(=O)N[C@@H](CCC(=O)O)C(=O)NC(C)(C)C(=O)NCC(=O)O) [Peptide 148] | 40.2 | 568

Reference: patent US20230357348A1 (AstraZeneca / MedImmune, published 2023)
